In patent US20230322957A1 (ENGMAB SARL, published 2023):
Where a chain is given by its changes, count along the chain named.

Experiments:
[1] = molecular target: recombinant cynomolgus BCMA Fc(kih) (cynomolgus, UniProt A0A2K5UD97 4-51, biotinylated in vivo at the avi-tag at the C-terminus of the Fc knob chain); assay: ratio of the SPR KDs of Table 4, human BCMA as reference
Procedure: Assessment of binding of anti-BCMA antibodies to recombinant BCMA by surface plasmon resonance (SPR) as follow. All SPR experiments were performed on a Biacore T200 at 25° C. with HBS-EP as running buffer (0.01M HEPES pH 7.4, 0.15M NaCl, 3 mM EDTA, 0.005% Surfactant P20, Biacore, Freiburg/Germany). The avidity of the interaction between anti-BCMA antibodies and recombinant BCMA Fc(kih) (human and cynomolgus) was determined. Biotinylated recombinant human and cynomolgus BCMA Fc(kih) were directly coupled on a SA chip following instructions (Biacore, Freiburg/Germany). The immobilization level ranged from 200 to 700 RU. […] The dissociation was monitored for 180 seconds. Bulk refractive index differences were corrected for by subtracting the response obtained on the reference flow cell. Here, the anti-BCMA antibodies were flown over an empty surface previously activated and deactivated as described in the standard amine coupling kit. Apparent kinetic constants were derived using the Biacore T200 Evaluation Software (vAA, Biacore AB, Uppsala/Sweden), to fit rate equations for 1:1 Langmuir binding by numerical integration, despite the bivalency of the interaction for comparison purposes. The affinity of the interaction between anti-BCMA antibodies and recombinant human BCMA Fc(kih) was also determined. Anti-human Fab antibody (GE Healthcare) was directly coupled on a CM5 chip at pH 5.0 using the standard amine coupling kit (Biacore, Freiburg/Germany). The immobilization level was about 6500 RU. […] The dissociation was monitored for 120 seconds. Bulk refractive index differences were corrected for by subtracting the response obtained on reference flow cell. […] Kinetic constants were derived using the Biacore T100 Evaluation Software (vAA, Biacore AB, Uppsala/Sweden), to fit rate equations for 1:1 Langmuir binding by numerical integration (Table 4).

[2] = molecular target: T1, human BCMA on the cell surface (human, UniProt Q02223 1-184); assay: cell-based or functional assay
T1 sequence (looked up): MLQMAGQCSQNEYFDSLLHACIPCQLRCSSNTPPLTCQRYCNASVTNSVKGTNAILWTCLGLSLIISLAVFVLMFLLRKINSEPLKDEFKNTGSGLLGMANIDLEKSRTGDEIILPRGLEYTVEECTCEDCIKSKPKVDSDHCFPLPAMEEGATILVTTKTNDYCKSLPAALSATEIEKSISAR

[3] = molecular target: T1, human BCMA on the cell surface; assay: cell-based or functional assay; remark: listed apart in the source
[4] = molecular target: T1, human BCMA on the cell surface; assay: cell-based or functional assay; remark: listed apart in the source
[5] = molecular target: T1, human BCMA on the cell surface; assay: cell-based or functional assay; remark: listed apart in the source
[6] = molecular target: T1, human BCMA on the cell surface; assay: cell-based or functional assay; remark: listed apart in the source
[7] = molecular target: T1, human BCMA on the cell surface; assay: cell-based or functional assay; remark: listed apart in the source
[8] = molecular target: T1, human BCMA on the cell surface; assay: cell-based or functional assay; remark: listed apart in the source

recombinant cynomolgus BCMA Fc(kih), sequence (A0A2K5UD97 entry or part of it): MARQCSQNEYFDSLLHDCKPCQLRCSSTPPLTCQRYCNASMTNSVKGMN

B1: Mab 21 IgG (antibody, V domains shown)
VH: EVQLLESGGGLVQPGGSLRLSCAASGFTFSDNAMGWVRQAPGKGLEWVSAISGPGSSTYYADSVKGRFTISRDNSKNTLYLQMNSLRAEDTAVYYCAKVLGWFDYWGQGTLVTVSS
VL: EIVLTQSPGTLSLSPGERATLSCRASQSVSEYYLAWYQQKPGQAPRLLIEHASTRATGIPDRFSGSGSGTDFTLTISRLEPEDFAVYYCQQYGYPPDFTFGQGTKVEIK
notes: Tested as human IgG1; also called antibody 21
Affinity cyno/hu gap (KD cynomolgus BCMA / KD human BCMA) [1]: 9.3 fold

B2: Mab 27 IgG (antibody, V domains shown)
VH: EVQLLESGGGLVQPGGSLRLSCAASGFTFSSAPMGWVRQAPGKGLEWVSAISYIGHTYYADSVKGRFTISRDNSKNTLYLQMNSLRAEDTAVYYCAKVLGWFDYWGQGTLVTVSS
VL: B1 VL
notes: Tested as human IgG1
Affinity cyno/hu gap (KD cynomolgus BCMA / KD human BCMA) [1]: 12.7 fold

B3: Mab 22 IgG (antibody, V domains shown)
VH: B1 VH
VL: B1 VL with E31S, E50S, H51G, S53G, T54S
notes: Tested as human IgG1; also called antibody 22; clone 22
Affinity cyno/hu gap (KD cynomolgus BCMA / KD human BCMA) [1]: 15.4 fold

B4: Mab 39 IgG (antibody, V domains shown)
VH: B1 VH with S30T, D31Q, G53P, P54T, S56F
VL: B1 VL
notes: Tested as human IgG1
Affinity cyno/hu gap (KD cynomolgus BCMA / KD human BCMA) [1]: 14 fold

B5: Mab 33 IgG (antibody, V domains shown)
VH: B1 VH with S30Y, D31T, S52N, G53R, P54F, S56G
VL: B1 VL
notes: Tested as human IgG1
Affinity cyno/hu gap (KD cynomolgus BCMA / KD human BCMA) [1]: 4.2 fold

B6: Mab 42 IgG (antibody, V domains shown)
VH: B1 VH
VL: B1 VL with E31D, Y32E, A35S, E50H, H51S, T75A
notes: Tested as human IgG1; also called antibody 42; clone 42
Affinity cyno/hu gap (KD cynomolgus BCMA / KD human BCMA) [1]: 1.7 fold

B7: 83A10-TCBcv (bispecific antibody, human IgG1, kappa, L234A L235A)
heavy 1: not shown
heavy 2: not shown
light 1: not shown
light 2: EVQLLESGGGLVQPGGSLRLSCAASGFTFSTYAMNWVRQAPGKGLEWVSRIRSKYNNYATYYADSVKGRFTISRDDSKNTLYLQMNSLRAEDTAVYYCVRHGNFGNSYVSWFAYWGQGTLVTVSSASVAAPSVFIFPPSDEQLKSGTASVVCLLNNFYPREAKVQWKVDNALQSGNSQESVTEQDSKDSTYSLSSTLTLSKADYEKHKVYACEVTHQGLSSPVTKSFNRGEC
EC50 redirected T-cell killing of L363 cells (LDH release), Donor 1 [2]: 0.0168 nM
EC50 redirected T-cell killing of L363 cells (LDH release), Donor 2 [2]: 0.0478 nM
EC50 redirected T-cell killing of L363 cells (LDH release), Donor 3 [2]: 0.0284 nM
EC50 redirected T-cell killing of L363 cells (LDH release), Donor 4 [2]: 0.0126 nM
EC50 redirected T-cell killing of L363 cells (LDH release), Donor 5 [2]: 0.039 nM
EC50 redirected T-cell killing of RPMI-8226 cells (LDH release), Donor 2 [3]: 0.621 nM
EC50 redirected T-cell killing of RPMI-8226 cells (LDH release), Donor 3 [3]: 0.229 nM
EC50 redirected T-cell killing of RPMI-8226 cells (LDH release), Donor 4 [3]: 0.035 nM
EC50 redirected T-cell killing of RPMI-8226 cells (LDH release), Donor 5 [3]: 0.0649 nM
Granzyme B secretion EC50, PBMC + RPMI-8226 cells (CBA) [4]: 0.34 nM
IL-10 secretion EC50, PBMC + RPMI-8226 cells (CBA) [4]: 0.3 nM
TNF-α secretion EC50, PBMC + RPMI-8226 cells (CBA) [4]: 0.52 nM
Annexin-V positive JJN-3 cells (%) at 0.1 pM, Experiment 2 [5]: 13.1%
Annexin-V positive JJN-3 cells (%) at 1 pM, Experiment 1 [5]: 11.4%
Annexin-V positive JJN-3 cells (%) at 1 pM, Experiment 2 [5]: 14.3%
Annexin-V positive JJN-3 cells (%) at 10 pM, Experiment 1 [5]: 11.1%
Annexin-V positive JJN-3 cells (%) at 10 pM, Experiment 2 [5]: 15.9%
Annexin-V positive JJN-3 cells (%) at 100 pM, Experiment 1 [5]: 9.12%
Annexin-V positive JJN-3 cells (%) at 100 pM, Experiment 2 [5]: 16.5%
Annexin-V positive JJN-3 cells (%) at 1000 pM, Experiment 1 [5]: 10.2%
Annexin-V positive JJN-3 cells (%) at 1000 pM, Experiment 2 [5]: 17.5%
Annexin-V positive JJN-3 cells (%) at 10000 pM, Experiment 1 [5]: 16.8%
Annexin-V positive JJN-3 cells (%) at 10000 pM, Experiment 2 [5]: 22.9%
Annexin-V positive patient bone marrow myeloma plasma cells (%) at 10 pM [6]: 16.8%
Annexin-V positive patient bone marrow myeloma plasma cells (%) at 100 pM [6]: 15.7%
Annexin-V positive patient bone marrow myeloma plasma cells (%) at 1000 pM [6]: 23.1%
Annexin-V positive patient bone marrow myeloma plasma cells (%) at 10000 pM [6]: 30.9%
Annexin-V positive patient bone marrow myeloma plasma cells (%) at 30000 pM [6]: 29.3%
Lysis of JJN-3 cells (%) at 0.1 pM, Experiment 2 [7]: 22.3%
Lysis of JJN-3 cells (%) at 1 pM, Experiment 1 [7]: 24.4%
Lysis of JJN-3 cells (%) at 1 pM, Experiment 2 [7]: -1.88%
Lysis of JJN-3 cells (%) at 10 pM, Experiment 1 [7]: 41.9%
Lysis of JJN-3 cells (%) at 10 pM, Experiment 2 [7]: 39.6%
Lysis of JJN-3 cells (%) at 100 pM, Experiment 1 [7]: 18.4%
Lysis of JJN-3 cells (%) at 100 pM, Experiment 2 [7]: 20.1%
Lysis of JJN-3 cells (%) at 1000 pM, Experiment 1 [7]: 26.7%
Lysis of JJN-3 cells (%) at 1000 pM, Experiment 2 [7]: 25.3%
Lysis of JJN-3 cells (%) at 10000 pM, Experiment 1 [7]: 70.3%
Lysis of JJN-3 cells (%) at 10000 pM, Experiment 2 [7]: 51.2%
EC50 redirected T-cell killing of H929 cells (LDH release), Donor 1 [8]: 0.0039 nM
EC50 redirected T-cell killing of H929 cells (LDH release), Donor 3 [8]: 0.0085 nM
EC50 redirected T-cell killing of H929 cells (LDH release), Donor 4 [8]: 0.005 nM
EC50 redirected T-cell killing of H929 cells (LDH release), Donor 5 [8]: 0.0043 nM
EC50 redirected T-cell killing of H929 cells (LDH release), Donor 6 [8]: 0.0015 nM
